According to the RNAGym collection of RNA variant scans (doi:10.1073/pnas.2313332121):

B1: TPR t1 (parent)
chain: GACCAAUCUGCCCUCAGAGCUCGAGAACAUCUUCGGAUGCAGAGGAGGCAGGCUUCGGUGGCGCGAUAGCGCCAACGUCCUCAACCUCCAAUGCAUCCCACCACAUGAUGAUGCCUGAAGAGCCUUGGUUUUUUG

Variants of: B1
Assay: polymerase ribozyme fitness, log enrichment relative to wild type (log ratio); higher = more active; in vitro selection for triplet polymerase activity
Outline: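 Mutant libraries of both subunits of a heterodimeric triplet polymerase ribozyme were PCR-built, transcribed, and selected once in triplicate, with frozen incubation at −7 °C and capture of gel-excised extended constructs on streptavidin beads before RT-PCR. Illumina sequencing of input and output libraries was filtered to genotypes with ≥10 input reads and ≥1 read per output. Fitness is the logarithm of genotype enrichment over wild-type enrichment, using inverse-variance-weighted replicate averages. The logarithm is base 2.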

Variant | polymerase ribozyme fitness (log ratio)
A6U G10U C15G C28A A100C C123U | -5.42
A6U C123G | 1.29
U7C C8G C12U G19C C115A G128C | -1.55
A6U G42U | -1.17
U7A G17U A74U G117A A118G | -4.25
A6U C12U G110U U130C | -0.715
C8A C64U A121G | 1.81
U7A G52A G69C | -2.28
A6U G42U C89G C115A U125C | -3.18
U7G A29U C56A C76U | -1.78
C8A C53U C56A A75G | 0.188
C8A C49U | 0.0763
U7A G71C U81G | -5.8
U7A A29U C72U U106A | -1.06
U7A U9C C12U G57C G63U | -0.748
U7A C8G A43C C53A G77A | -2.07
A6U G19A G44A C53A G57A A100U C124U | -4.72
U7C U78G C82G C99A U112G G128U | -5.9
A6U U9G A27U C34A G44U C64U | -6.87
U7A C72U U92C | -0.872
A6U G63U | -1.06
U7A C12G G17U A105G G120C | -4.05
A6U U106G G113C | -3.9
U7A A41U C72A C85U | -0.761

Variant | polymerase ribozyme fitness (log ratio)
A6U C13A C40U C62A A95U | -3.6
U7G A41G C53A C72G C79U A90U A111C | -2.28
U7G G23A | -4.28
U7A U14A A119G | 0.0679
U7C C62U A111U U133A | -2.88
A6U G10U C53U G122C C123A U125A | -0.333
U7C C40A C56G | -1.43
A6U C40U A84G C89U G113U G122C | -5.19
U7C U21G G45C G71U | -2.5
U7G G10A C49U U112G | -2.64
U7G G44U G52C C82G G113A C124U | -3
U7C C56G U78C A84U G113C | -2.73
C8A C12U C40A | -0.186
U7A C31U G60A | -4.77
U7C C12A C88A U96A C104U | -1.43
U7A C12A C20A G42U | -3.2
U7G C104A | -2.23
C8A C11U G17C | -2.13
A6U C34G G45C C49A C123U | -5.99
U7A C62G C86U | -1.24
U7G A95G | 0.461
A6U G44U C53U G77U G110A | -3.2
U7C G42C C72A C88U C115U U133A | -0.456
A6U G48A | -0.413

Variant | polymerase ribozyme fitness (log ratio)
U7G C64U C97U G107A U112A | -5.51
U7A G39A G42C G45C A83U G110A | -5.83
U7A C22U G39A G44U C53U C56G G63A A68U C124A U125A | -6.98
C8A C64A U112C U125A | -5.5
U7G A24U C102G U109A | -4.85
A6U C40U | 0.421
A6U C28G G45U C56G C64A G120C | -7.29
C8A A50U U59C G63C | -4.31
U7G G44A C62G A74U C80G G117C | -7
A6U C22U C64U C124U | -4.12
C8A A37U C104A | -1.64
A6U C56U C85A | -2.08
U7G C88U | -0.443
U7G C12A A43U C73A | -1.44
U7A U32C U55C G60C U129A | -1.82
C8A A18C U21G | -4.13
C8A C28A C56U C82U U106A C115A | -2.02
C8A C40G | 0.0349
U7A C12G A18C G45A G48A C49A A74G C85U | -5.35
A6U C79G | -1.17
U7A C53G A83G A84C | -0.766
U7G U30A C101U U109A C124A | -3.51
U7G G120C | 0.815
A6U G42U C49U C101U G110U C123G | -6.14

Variant | polymerase ribozyme fitness (log ratio)
U7A C72A G93C | -0.463
U7A A41U C85U | -1.81
U7A C12U A46U G58A C70A | -1.97
U7A G63U G77C U92G | -5.12
C8A C62U A74C C89A C104A U112C | -3.01
A6U G44C C72G G110A C115A | -4.85
A6U G110A | -0.89
U7G G19A G44C C114G G120U | -3.21
U7G G51U G60U A111C | -2.64
C8A C40U A103C | -3.75
A6U U30C G60A G122A | -5.6
A6U C73A | 0.0629
A6U C73U | 0.309
U7C C8U C34G C73U | -5.57
U7A U33A | -3.98
U7G U59A U130G | -0.396
U7A C40A G71U C89G A103C C124U | -6.17
A6U G52A A74U | -0.0324
A6U C34A | -1.85
U7A A18U U59C | -2.69
U7G U55G C82U | 0.425
U7C G71A G127U U133G | -1.83
U7G G10U U78C C101A G122A | -1.81
U7A A18U G71A A119U G122U G135U | -5.8

Variant | polymerase ribozyme fitness (log ratio)
C8A A18U G45C U109A | -5.8
A6U C12A U78A C80U C86A G120A | -3.45
C8A A66U C124G | 0.659
A6U C11U U14G A46C | -4.04
U7A C72U G77C G93C G113A G120A | -2.99
U7G G23C C82U C86G G110C | -7.53
U7A C40U C85G C104U | -2.31
A6U G57A G58C A103C A105C | -6.92
U7C A29G G63U U81A U132C | -3.82
U7A A41U G71A C85U U87A | -4.06
U7A A24C C40G G93U U112A C123U | -5.82
C8A C34G G110C U129G | -8.1
A6U C12U A27U | -1.6
U7G G45C G52C C79U C102A | -3.37
U7G G65U G120A | -4.13
C8A | 0.459
U7G A83U | -0.221
U7G C70U A83C C97A | -5.37
A6U C86U C88A A121U | 0.522
C8A A46U A74U A100U C102U C115A | -2.37
A6U C49U C53U C62A G110A | -5.45
U7C C28U C49U A50C G120A G122A | -2.33
U7A C13U A27G G36U A50C | -2.73
U7C C89U U109A | -4.17

Variant | polymerase ribozyme fitness (log ratio)
U7C C13A C53U | -0.742
U7G A18U A121U | 0.525
A6U U59C A119G | 0.571
U7G A84G U133G G135U | 0.51
C8A A41U U112C | 0.774
U7C C12A C76G | 0.0602
A6U C70U A105U U125A | -3.91
U7A C8G A16C A46U C70A | -3.78
U7C U14C C70U | -2.11
U7A U33A C70U | -5.78
U7G C53U C62G C101G C102A G120U G127A | -7.14
U7G C70G | -2.23
A6U C13G A26U A43U C76A C115G | -7.08
U7A C85U U125G | -1.31
U7A A41G A66C | -1.26
U7A C20A A26G C82U U125A | -3.24
U7A U9A C11A G42C G47U G61A A118U | -4.21
U7G G17U C28U A90C U106A | -2.82
U7A G60C C72U | 0.796
U7A A29U G60U C97U G113C G120U U133A | -4.07
A6U G57A | -0.751
U7G C72G | 0.441
U7G C72U | 0.255
U7G C70G C102U U106A | -4.46

Variant | polymerase ribozyme fitness (log ratio)
A6U C80A U87A | -2.6
A6U G120A | 0.678
C8A A18G U109C C115A | -5.42
A6U U106A | -0.188
A6U C12A A16U G19U G42A G63U G93A U106A G120A U130A | -7.49
A6U C124A | 1.49
C8A A41U C49G G61A U81C A100U | -8.29
U7C U14A A46U | -2.65
U7G U14G C34G | -5.56
C8A C62A U130G | -0.621
A6U U9C | 0.514
C8A A24U G61U C115U G117A | -7.42
U7G G36C | 0.162
U7G U109C | -3.87
A6U G10A G71A | 0.159
A6U C88U | -1.02
A6U C88A | -0.42
U7G G61A C76A C94A G110C G117C | -7.29
U7A A50U G77A | -1
A6U G45U C101A | -2.89
C8A C34A C98G U126G | -4.07
A6U U112G U130A | 0.321
U7A G44C C124G U129G G135U | -0.681
